# Experimental data taken from PMC7051184 (2020).
# Biological target: 6His-S-Importin β(1-876), full-length WT human importin β (human, UniProt Q14974 1-876)
# Experiment: FRET; displacement of importin β-bound Rango
# 6His-S-Importin β(1-876), full-length WT human importin β, sequence (Q14974 whole entry): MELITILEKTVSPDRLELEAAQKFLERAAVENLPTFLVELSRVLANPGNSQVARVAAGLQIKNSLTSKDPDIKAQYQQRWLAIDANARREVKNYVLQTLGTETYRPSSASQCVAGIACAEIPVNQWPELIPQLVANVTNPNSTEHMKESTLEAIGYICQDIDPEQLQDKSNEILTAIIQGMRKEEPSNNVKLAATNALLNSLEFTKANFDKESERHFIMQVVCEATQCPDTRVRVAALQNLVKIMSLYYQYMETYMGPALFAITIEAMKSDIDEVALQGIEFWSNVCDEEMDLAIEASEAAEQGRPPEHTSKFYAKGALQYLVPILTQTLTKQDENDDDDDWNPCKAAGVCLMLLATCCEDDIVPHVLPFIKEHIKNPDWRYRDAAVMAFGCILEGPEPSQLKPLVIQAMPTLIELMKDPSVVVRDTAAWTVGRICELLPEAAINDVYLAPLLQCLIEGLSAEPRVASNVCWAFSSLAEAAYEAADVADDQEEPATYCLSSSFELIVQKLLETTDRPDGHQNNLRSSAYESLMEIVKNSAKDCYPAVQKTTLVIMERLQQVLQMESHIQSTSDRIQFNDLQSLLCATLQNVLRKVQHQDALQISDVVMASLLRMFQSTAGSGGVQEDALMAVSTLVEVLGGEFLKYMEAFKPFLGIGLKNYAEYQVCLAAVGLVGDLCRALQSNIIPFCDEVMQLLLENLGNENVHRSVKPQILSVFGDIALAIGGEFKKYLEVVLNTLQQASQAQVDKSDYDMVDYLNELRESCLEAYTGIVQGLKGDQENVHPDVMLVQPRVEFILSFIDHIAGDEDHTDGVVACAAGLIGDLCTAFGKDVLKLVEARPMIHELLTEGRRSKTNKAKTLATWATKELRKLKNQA
binder,measurement,value
PRPRPRPRPRPRPRPRPRPRKC,Kd,8.2 nM
